Experimental data: patent publication US20170298146A1 (MODIQUEST B V, published 2017)
Non-standard residues stand in square brackets, D forms with d. No end group written: not given here. Cit = NC(=O)NCCC[C@H](N)C(=O)O

How the values were obtained:
msVim XS/XL = target: T1, msVim XS/XL (mouse, also: biotin label); experiment: peptide ELISA, 0.08 ug/well
T1 construct: also called mouse vimentin peptide
T1 peptide: YVT[Cit]SSAV[Cit]L[Cit]SSVP
Method: (§1) Biotin and citrulline-containing peptides derived from fibrinogen and vimentin were immobilized on NEUTRAVIDIN®-coated 96-well ELISA plates (0.3 μg/well). CFC-1 and CFC-0 were coated at the same concentration and served as positive and negative controls respectively for specific anti-citrulline reactivity and as coating controls. Non-coated wells were used to test for aspecific binding of the antibodies. […] Detection of bound anti-citrulline antibodies was performed by incubating the wells with rabbit-anti-human-HRP (1:2000) for one hour at RT followed by incubation with TMB substrate. The resulting OD (y-axis) is a measure for antibody binding.
(§2) Biotin-labeled and citrulline-containing fibrinogen and vimentin peptides (Table 5) were also tested for reactivity with the therapeutic antibodies. Peptides were coated on 96-well NEUTRAVIDIN®-ELISA plates.

msFibα XH = target: T2, msFibα XH (mouse, X at position 15 is citrulline; biotin label); experiment: peptide ELISA, 0.08 ug/well
T2 peptide: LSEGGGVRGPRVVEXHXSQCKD
Method: as §1, §2

[1] = target: T3, Histone 2A citrulline-containing peptide 8 (human, also: biotin label); experiment: peptide ELISA, 0.016 ug/well
T3 peptide: AGNAA[Cit]DNKKTR
Method: as §1, with “histone 2A” for “fibrinogen and vimentin”
(§3) Ninety-six-well ELISA plates were coated with NEUTRAVIDIN® (0.1 μg/well) by overnight incubation at 4° C. Wells were washed five times with PBS-TWEEN®-20 (PBS-T) and blocked by a one-hour incubation with PBS-T+1% Bovine serum albumin (BSA) at room temperature (RT). After five more washes with PBS-T, wells were incubated for one hour at RT with histone-derived citrulline and biotin-containing peptides (0.3 μg/well). […] Wells were washed five times with PBS-T and incubated with rabbit-anti-human-HRP (1:2000) for one hour at RT followed by five washes with PBS-T and three wash steps with PBS. Wells were incubated for five minutes with TMB substrate before stopping the reaction with 2 M H₂SO₄. Optical density was measured by 450 nm and is a measure for the affinity of the antibodies used.

[2] = target: T4, Histone 2A citrulline-containing peptide 4 (human, also: biotin label); experiment: peptide ELISA, 0.016 ug/well
T4 peptide: QFPVG[Cit]VHRLLR
Method: as §1, with “histone 2A” for “fibrinogen and vimentin”
as §3

[3] = target: T5, Histone 2A citrulline-containing peptide 5 (human, also: biotin label); experiment: peptide ELISA, 0.016 ug/well
T5 peptide: VGRVH[Cit]LLRKGN
Method: as §1, with “histone 2A” for “fibrinogen and vimentin”
as §3

[4] = target: T6, Histone 2A citrulline-containing peptide 6 (human, also: biotin label); experiment: peptide ELISA, 0.016 ug/well
T6 peptide: VHRLL[Cit]KGNYSE
Method: as §1, with “histone 2A” for “fibrinogen and vimentin”
as §3

[5] = target: T7, Histone 2A citrulline-containing peptide 7 (human, also: biotin label); experiment: peptide ELISA, 0.016 ug/well
T7 peptide: GNYSE[Cit]VGAGAP
Method: as §1, with “histone 2A” for “fibrinogen and vimentin”
as §3

[6] = target: T8, Histone 2A citrulline-containing peptide 10 (human, also: biotin label); experiment: peptide ELISA, 0.016 ug/well
T8 peptide: TRIIP[Cit]HLQLAI
Method: as §1, with “histone 2A” for “fibrinogen and vimentin”
as §3

[7] = target: T9, Histone 2A citrulline-containing peptide 3 (human, also: biotin label); experiment: peptide ELISA, 0.016 ug/well
T9 peptide: KSRSS[Cit]AGLQFP
Method: as §1, with “histone 2A” for “fibrinogen and vimentin”
as §3

[8] = target: T10, Histone 2A citrulline-containing peptide 1 (human, also: biotin label); experiment: peptide ELISA, 0.016 ug/well
T10 construct: also called AAASGXGKQGGK
T10 peptide: AAASG[Cit]GKQGGK
Method: as §1, with “histone 2A” for “fibrinogen and vimentin”
as §3

CFC-1 [9] = target: T11, CFC-1; experiment: peptide ELISA, 0.016 ug/well
T11 construct: Positive control for anti-citrulline reactivity; also called cfc1 XG
Method: as §1, with “histone 2A” for “fibrinogen and vimentin”
as §3

[10] = target: T12, Histone 2A citrulline-containing peptide 12 (human, also: biotin label); experiment: peptide ELISA, 0.016 ug/well
T12 peptide: NKLLG[Cit]VTIAQG
Method: as §1, with “histone 2A” for “fibrinogen and vimentin”
as §3

[11] = target: T13, Histone 2A citrulline-containing peptide 11 (human, also: biotin label); experiment: peptide ELISA, 0.016 ug/well
T13 peptide: LQLAI[Cit]NDEELN
Method: as §1, with “histone 2A” for “fibrinogen and vimentin”
as §3

[12] = target: T14, Histone 2A citrulline-containing peptide 2 (human, also: biotin label); experiment: peptide ELISA, 0.016 ug/well
T14 peptide: AKAKS[Cit]SSRAGL
Method: as §1, with “histone 2A” for “fibrinogen and vimentin”
as §3

[13] = target: T15, Histone 2A citrulline-containing peptide 9 (human, also: biotin label); experiment: peptide ELISA, 0.016 ug/well
T15 peptide: DNKKT[Cit]IIPRHL
Method: as §1, with “histone 2A” for “fibrinogen and vimentin”
as §3

[14] = target: T3, Histone 2A citrulline-containing …; experiment: peptide ELISA, 0.0023 ug/well
Method: as §1, with “histone 2A” for “fibrinogen and vimentin”
as §3

[15] = target: T4, Histone 2A citrulline-containing …; experiment: peptide ELISA, 0.0023 ug/well
Method: as §1, with “histone 2A” for “fibrinogen and vimentin”
as §3

[16] = target: T5, Histone 2A citrulline-containing …; experiment: peptide ELISA, 0.0023 ug/well
Method: as §1, with “histone 2A” for “fibrinogen and vimentin”
as §3

[17] = target: T7, Histone 2A citrulline-containing …; experiment: peptide ELISA, 0.0023 ug/well
Method: as §1, with “histone 2A” for “fibrinogen and vimentin”
as §3

[18] = target: T8, Histone 2A citrulline-containing …; experiment: peptide ELISA, 0.0023 ug/well
Method: as §1, with “histone 2A” for “fibrinogen and vimentin”
as §3

[19] = target: T10, Histone 2A citrulline-containing …; experiment: peptide ELISA, 0.0023 ug/well
Method: as §1, with “histone 2A” for “fibrinogen and vimentin”
as §3

CFC-1 [20] = target: T11, CFC-1; experiment: peptide ELISA, 0.0023 ug/well
Method: as §1, with “histone 2A” for “fibrinogen and vimentin”
as §3

[21] = target: T12, Histone 2A citrulline-containing …; experiment: peptide ELISA, 0.0023 ug/well
Method: as §1, with “histone 2A” for “fibrinogen and vimentin”
as §3

[22] = target: T13, Histone 2A citrulline-containing …; experiment: peptide ELISA, 0.0023 ug/well
Method: as §1, with “histone 2A” for “fibrinogen and vimentin”
as §3

[23] = target: PREDICTED: similar to 60S ribosomal protein L29 (Cell surface heparin-binding protein HIP) [Homo sapiens] (Homo sapiens); experiment: IP from huPAD4 deiminated HEK293 lysate, nLC LTQ FTMS, emPAI; against RhmAb2.101
Method: Beads were subjected to three washes with 1 ml IPP500, one wash with 1 ml IPP150 (10 mM Tris/HC1 pH 8.0, 150 mM NaCl, 0.1% NP40 and 0.1% TWEEN®-20), and subsequently incubated at room temperature with 300 μl deiminated HEK293 lysate for two hours under constant rotation. Beads were washed three times with 1 ml of IPP150 after which a small part has been used for SDS-PAGE electrophoresis to determine if the IP procedure with the HEK293 cells was successful.
To remove PEGs from the immunoprecipitated proteins, they were loaded on a 15% SDS-PAGE gel and run shortly. […] Samples were diluted 50 fold before subjecting them to nLC LTQ FTMS ULTRA analysis.

B1: RhmAb2.102 (antibody, human IgG1, lambda)
heavy: not shown
light: QSVLTQPPSMSAAPGQKVTISCSGSSSNIGNNYVSWYQQVPGTAPKLLIYDDNKRPSGIPGRFSGSKSATSATLGITGLQAGDEADYYCGSWDDNLSVVLFGGGTKLTVLGQPKAAPSVTLFPPSSEELQANKATLVCLISDFYPGAVTVAWKADSSPVKAGVETTTPSKQSNNKYAASSYLSLTPEQWKSHRSYSCQVTHEGSTVEKTVAPTECS
notes: Human IgG1 lambda; also called Rhm2.102
msVim XS/XL
  OD: 0.515 OD
msFibα XH
  OD: 0.076 OD
[1]
  OD: 0.063 OD
[2]
  OD: 0.084 OD
[3]
  OD: 0.065 OD
[4]
  OD: 0.075 OD
[5]
  OD: 0.061 OD
[6]
  OD: 0.066 OD
[7]
  OD: 0.07 OD
[8]
  OD: 0.843 OD
CFC-1 [9]
  OD: 1.46 OD
[10]
  OD: 0.057 OD
[11]
  OD: 0.069 OD
[12]
  OD: 0.065 OD
[13]
  OD: 0.064 OD
[14]
  OD: 0.06 OD
[15]
  OD: 0.078 OD
[16]
  OD: 0.063 OD
[17]
  OD: 0.064 OD
[18]
  OD: 0.068 OD
[19]
  OD: 0.3 OD
CFC-1 [20]
  OD: 0.916 OD
[21]
  OD: 0.059 OD
[22]
  OD: 0.057 OD
[23]
  Ratio 102/101: 1
